From patent publication WO2020239014A1 (dated 2020)
Where a chain is given by its changes, count along the chain named. Names may count otherwise. “And” between values parts separate entries of the source, which are not always exact repeats. Equal values may be shown once.

T1: CGRPα (4013281-1000, Bachem) (human, UniProt P06881 83-119, not fully specified)
T1 construct: mature; ELISA: coated Bachem CGRPα; also called α-CGRP; human CGRP
T1 peptide (looked up): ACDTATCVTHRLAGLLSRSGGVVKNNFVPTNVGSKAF

B1: CGRPM5-BA51.23-IgG2 (antibody, V domains shown)
VH: QVQLVQSGAEVKKPGASVKVSCKASGYTFTRYTMHWIRQAPGQGLEWMGYIYPSSGYTIYNQKFQGRVTMTRDTSTSTVYMELSSLRSEDTAVYYCATEGHYAGNGNYEGYWGQGTTVTVSS
VL: DIVMTQSPSSLSASVGDRVTITCRASSSISSNYLHWYQQKPGKAPKLLIYRTSNLASGVPSRFSGSGSGTDFTLTISSLQPEDFATYYCQQGSSIPFTFGQGTKLEIK
notes: Humanized BA51, IgG2; also called CGRP-BA51.23; CGRP-BA51.23-IgG2
B2: CGRPM5-BA51.23-IgG2-N105D (antibody, V domains shown)
VH: B1 VH with N105D
VL: B1 VL
notes: IgG2; also called optimized BA51.23 antibody (N105D)
B3: CGRPM5-BA51.23-IgG2-N105L (antibody, V domains shown)
VH: B1 VH with N105L
VL: B1 VL
notes: IgG2; also called optimized BA51.23 antibody (N105L)

Experiments:
[1] = target: T1, CGRPα (4013281-1000, Bachem); experiment: ELISA, coated CGRPα titrated (0-0.2 μg/mL), antibody fixed at 1 μg/mL
[2] = target: T1, CGRPα (4013281-1000, Bachem); experiment: BLI (Octet RED 96), α-CGRP on streptavidin biosensors, antibody in solution, 1:1 model
[3] = target: T1, CGRPα (4013281-1000, Bachem); experiment: cell-based or functional assay

Row | Binder | EC50 [1] | Kd [2] | koff [2] | kon [2] | EC50, cell-based cAMP activation assay (HTRF) with CGRP [3]
1 | B1 | 0.0135 µg/mL and 0.036 µg/mL | < 1 pM | < 1e-07 s⁻¹ | 122000 M⁻¹ s⁻¹ | 
2 | B2 | 0.00844 µg/mL |  |  |  | 32 µg/mL
3 | B3 | 0.0106 µg/mL |  |  |  | 44.9 µg/mL
